Experimental data published in patent publication US20250388643A1, “GLUCAGON-LIKE PEPTIDE-2 COMPOSITIONS AND METHODS OF MAKING AND USING SAME” (Amunix Pharmaceuticals, Inc., priority 2011, published 2025).

T1: GLP-2 receptor (GLP2 G-protein coupled receptor) on transfected GLP2R cell line (Millipore, Cat #HTS164C) (human, UniProt O95838 1-553)
T1 sequence (looked up): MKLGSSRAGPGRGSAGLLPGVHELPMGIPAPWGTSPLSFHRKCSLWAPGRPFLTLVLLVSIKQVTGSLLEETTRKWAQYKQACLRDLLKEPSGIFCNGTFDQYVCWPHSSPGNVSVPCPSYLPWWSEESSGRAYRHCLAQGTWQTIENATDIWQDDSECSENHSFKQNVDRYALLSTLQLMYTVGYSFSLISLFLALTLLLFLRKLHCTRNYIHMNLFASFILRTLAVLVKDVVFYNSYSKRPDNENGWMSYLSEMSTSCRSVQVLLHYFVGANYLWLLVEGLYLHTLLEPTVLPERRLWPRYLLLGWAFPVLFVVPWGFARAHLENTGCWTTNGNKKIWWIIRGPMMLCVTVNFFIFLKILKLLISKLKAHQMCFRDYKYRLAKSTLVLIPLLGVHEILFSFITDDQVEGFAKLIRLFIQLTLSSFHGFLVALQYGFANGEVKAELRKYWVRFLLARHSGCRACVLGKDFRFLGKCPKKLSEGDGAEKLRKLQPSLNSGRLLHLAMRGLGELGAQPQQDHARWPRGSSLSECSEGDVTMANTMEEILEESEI

B1: Glucagon-Y288: glucagon fused to unstructured polypeptide Y288 (protein)
chain: HSQGTFTSDYSKYLDSRRAQDFVQWLMNTGGEGSGEGSEGEGSEGSGEGEGSEGSGEGEGGSEGSEGEGGSEGSEGEGGSEGSEGEGSGEGSEGEGGSEGSEGEGSGEGSEGEGSEGGSEGEGGSEGSEGEGSGEGSEGEGGEGGSEGEGSEGSGEGEGSGEGSEGEGSEGSGEGEGSGEGSEGEGSEGSGEGEGSEGSGEGEGGSEGSEGEGSEGSGEGEGGEGSGEGEGSGEGSEGEGGGEGSEGEGSGEGGEGEGSEGGSEGEGGSEGGEGEGSEGSGEGEGSEGGSEGEGSEGGSEGEGSEGSGEGEGSEGSGE
B2: GLP2-2G-XTEN_AE864 fusion protein (ligand)
chain: HGDGSFSDEMNTILDNLAARDFINWLIQTKITDGGSPAGSPTSTEEGTSESATPESGPGTSTEPSEGSAPGSPAGSPTSTEEGTSTEPSEGSAPGTSTEPSEGSAPGTSESATPESGPGSEPATSGSETPGSEPATSGSETPGSPAGSPTSTEEGTSESATPESGPGTSTEPSEGSAPGTSTEPSEGSAPGSPAGSPTSTEEGTSTEPSEGSAPGTSTEPSEGSAPGTSESATPESGPGTSTEPSEGSAPGTSESATPESGPGSEPATSGSETPGTSTEPSEGSAPGTSTEPSEGSAPGTSESATPESGPGTSESATPESGPGSPAGSPTSTEEGTSESATPESGPGSEPATSGSETPGTSESATPESGPGTSTEPSEGSAPGTSTEPSEGSAPGTSTEPSEGSAPGTSTEPSEGSAPGTSTEPSEGSAPGTSTEPSEGSAPGSPAGSPTSTEEGTSTEPSEGSAPGTSESATPESGPGSEPATSGSETPGTSESATPESGPGSEPATSGSETPGTSESATPESGPGTSTEPSEGSAPGTSESATPESGPGSPAGSPTSTEEGSPAGSPTSTEEGSPAGSPTSTEEGTSESATPESGPGTSTEPSEGSAPGTSESATPESGPGSEPATSGSETPGTSESATPESGPGSEPATSGSETPGTSESATPESGPGTSTEPSEGSAPGSPAGSPTSTEEGTSESATPESGPGSEPATSGSETPGTSESATPESGPGSPAGSPTSTEEGSPAGSPTSTEEGTSTEPSEGSAPGTSESATPESGPGTSESATPESGPGTSESATPESGPGSEPATSGSETPGSEPATSGSETPGSPAGSPTSTEEGTSTEPSEGSAPGTSTEPSEGSAPGSEPATSGSETPGTSESATPESGPGTSTEPSEGSAPG

What was measured:
[1] = Analytical size exclusion chromatography of XTEN fusion proteins with diverse payloads; type: physicochemical; settings: SEC
Description: Size exclusion chromatography analyses were performed on fusion proteins containing various therapeutic proteins and unstructured recombinant proteins of increasing length. […] Chromatogram profiles were monitored using OD214 nm and OD280 nm. Column calibration for all assays were performed using a size exclusion calibration standard from BioRad; the markers include thyroglobulin (670 kDa), bovine gamma-globulin (158 kDa), chicken ovalbumin (44 kDa), equine myoglobuin (17 kDa) and vitamin B12 (1.35 kDa). […] Based on the SEC analyses for all constructs evaluated, the apparent molecular weights, the apparent molecular weight factor (expressed as the ratio of apparent molecular weight to the calculated molecular weight) and the hydrodynamic radius (RH in nm) are shown in Table 23. […] Accordingly, it is expected that fusion proteins comprising growth and XTEN have reduced renal clearance, contributing to increased terminal half-life and improving the therapeutic or biologic effect relative to a corresponding un-fused biologic payload protein.

[2] = target: T1, GLP-2 receptor (GLP2 G-protein coupled …); experiment: cell-based or functional assay

| Molecule | hydrodynamic radius [1] [nm] | EC50 (calcium flux, FLIPR TETRA, GLP2R cell line) [2] [nM] | potency relative to GLP2-2G (calcium flux, GLP2R cell line) [2] [%] |
| --- | --- | --- | --- |
| B1 | ≥ 7 |  |  |
| B2 |  | 370 | ~2 |
